These results are taken from US20210393523A1, “AROMATIC RING SUBSTITUTED AMPHIPHILIC POLYMERS AS DRUG DELIVERY SYSTEMS” (Avldea Technologies, Inc., priority 2018, published 2021).

Square brackets hold non-standard residues; d marks the D form. Ends that are not written are not given here. N3‑DBCO = triazole linker from reaction of an azide with DBCO; Lys(N3) = [N-]=[N+]=NCCCC[C@H](N)C(=O)O; Phe(4-NH2) = Nc1ccc(C[C@H](N)C(=O)O)cc1

Data set [1] can be described thus: Particle size and stability by dynamic light scattering. Type of data set: physicochemical. The settings on record: Table 2; S-[B]-H particles.
Experiment in data set [2]: as above
The format is physicochemical. The following applies: Table 3; peptide-based linear C-B-H; PBS pH 7.4, 0.5 mg/mL. The method, then:
To evaluate particle size and stability, 10 μL of the resulting mixture was diluted with 190 μL PBS, pH 7.4 and the resulting solution was evaluated for turbidity and by dynamic light scattering (DLS).
This reaction scheme was used to prepare different compositions of amphiphilic block copolymers that were characterized for the capacity to form stable nanoparticle micelles in aqueous buffer, PBS pH 7.4, at a concentration of 0.5 mg/mL of amphiphilic block copolymer.
A series of linear amphiphilic block copolymers of formula C-B-H, wherein the charged molecule (C) and spacer (B) comprises peptides, i.e., poly(lysine) and poly(serine-co-glycine), respectively, with varying hydrophobic polymer composition were evaluated for particle size and stability by dynamic light scattering.

The next data set has as its system MC38 tumor cells. Description: Regression of established MC38 tumors after intratumoral treatment. The format is in vivo, C57BL/6 mice. The following applies: intratumoral days 11 and 17, 10 and 50 nmol. As to the method:
Tumors were measured by digital callipers for the longest dimension (‘length’) and the distance perpendicular to the length (‘width’), and volume estimated by the formula: <volume=width×width×length/2>. Data are reported as mean±s.e.m in FIGS. 3-5. Tumor regression is noted as soon as 1 day following 50 nmol dose of each S-B-H carrier of TLR-7/8a.

For the substance “KKK-SLVRX-(N3-DBCO)-WWWWW (KKKSLVR[Lys(N3)]WWWWW; not fully specified (residue 8); printed as KKK-SLVRX-(N3-DBCO)-WWWWW; also: azidolysine joined to Trp block via N3-DBCO linkage) [Compound 22]”, the “Particle size (Diameter, nm)” value in data set [1] came out at 64.73 nm.

With “KKK-SGSGSGSGSGSGSGSGSGSGSGSG-(Lys(N3-DBCO))-Ahx-(F′)5: peptide-based linear amphiphilic block copolymer (KKKSGSGSGSGSGSGSGSGSGSGSGSGK[Phe(4-NH2)][Phe(4-NH2)][Phe(4-NH2)][Phe(4-NH2)][Phe(4-NH2)]; not fully specified (residue 28); printed as KKK-SGSGSGSGSGSGSGSGSGSGSGSG-(Lys(N3-DBCO))-Ahx-(F′)5; also: Lys joined to F′ block via N3-DBCO-Ahx linkage)”, in data set [2], the “Size (diameter, nm)” value worked out at 1013 nm.

Take “EEEEE-(N3-DBCO)-WWWWW (EEEEE[N3‑DBCO]WWWWW) [Compound 23]”: the “Particle size (Diameter, nm)” value in data set [1] is given as 54.09 nm.

“KKKKKKK-SGSGSGSGSGSGSGSGSGSGSGSG-(Lys(N3-DBCO))-Ahx-(F′)20: peptide-based linear amphiphilic block copolymer (KKKKKKKSGSGSGSGSGSGSGSGSGSGSGSGK[Phe(4-NH2)][Phe(4-NH2)][Phe(4-NH2)][Phe(4-NH2)][Phe(4-NH2)][Phe(4-NH2)][Phe(4-NH2)][Phe(4-NH2)][Phe(4-NH2)][Phe(4-NH2)][Phe(4-NH2)][Phe(4-NH2)][Phe(4-NH2)][Phe(4-NH2)][Phe(4-NH2)][Phe(4-NH2)][Phe(4-NH2)][Phe(4-NH2)][Phe(4-NH2)][Phe(4-NH2)]; not fully specified (residue 32); also: Lys joined to F′ block via N3-DBCO-Ahx linkage)”: the “Size (diameter, nm)” value in data set [2] was 32 nm.

“{OH-PEG24}4-{propargyl}4K2K{Lys(N3)}-DBCO-Ahx-(F′)10 [Compound 80]”: the “Regression of established tumors” value with MC38 tumor cells (FIG. 5, nanoparticles admixed with 2BXy and Doxorubicin at 1 to 4 to 4 molar ratio) was “promote regression of established tumors”.

Consider “KKKKKKK-SGSGSGSGSGSGSGSGSGSGSGSG-(Lys(N3-DBCO))-Ahx-(F′)5: peptide-based linear amphiphilic block copolymer (KKKKKKKSGSGSGSGSGSGSGSGSGSGSGSGK[Phe(4-NH2)][Phe(4-NH2)][Phe(4-NH2)][Phe(4-NH2)][Phe(4-NH2)]; not fully specified (residue 32); printed as KKKKKKK-SGSGSGSGSGSGSGSGSGSGSGSG-(Lys(N3-DBCO))-Ahx-(F′)5; also: Lys joined to F′ block via N3-DBCO-Ahx linkage)”, for which, in data set [2], the “Size (diameter, nm)” value came out at 477 nm.

With “KKK-SGSGSGSGSGSGSGSGSGSGSGSG-(Lys(N3-DBCO))-Ahx-(F′)10: peptide-based linear amphiphilic block copolymer (KKKSGSGSGSGSGSGSGSGSGSGSGSGK[Phe(4-NH2)][Phe(4-NH2)][Phe(4-NH2)][Phe(4-NH2)][Phe(4-NH2)][Phe(4-NH2)][Phe(4-NH2)][Phe(4-NH2)][Phe(4-NH2)][Phe(4-NH2)]; not fully specified (residue 28); printed as KKK-SGSGSGSGSGSGSGSGSGSGSGSG-(Lys(N3-DBCO))-Ahx-(F′)10; also: Lys joined to F′ block via N3-DBCO-Ahx linkage)”, in data set [2], the “Size (diameter, nm)” value was 3839 nm.

As to “K7(SG)12×—(N3-DBCO)-Ahx-(F′)20 [Compound 84]”, the “Regression of established tumors” value with MC38 tumor cells (FIG. 4, nanoparticles associated with 2BXy (1 to 4 molar ratio) or covalently linked to 2BXy) was “promote regression of established tumors”.
